{"source": "patent US20250326851A1", "about": "(Bayer, published 2025)", "key": {"[1]": {"target": "T1, human CCR8 (human, UniProt P51685 1-355)", "T1 sequence (P51685 whole entry)": "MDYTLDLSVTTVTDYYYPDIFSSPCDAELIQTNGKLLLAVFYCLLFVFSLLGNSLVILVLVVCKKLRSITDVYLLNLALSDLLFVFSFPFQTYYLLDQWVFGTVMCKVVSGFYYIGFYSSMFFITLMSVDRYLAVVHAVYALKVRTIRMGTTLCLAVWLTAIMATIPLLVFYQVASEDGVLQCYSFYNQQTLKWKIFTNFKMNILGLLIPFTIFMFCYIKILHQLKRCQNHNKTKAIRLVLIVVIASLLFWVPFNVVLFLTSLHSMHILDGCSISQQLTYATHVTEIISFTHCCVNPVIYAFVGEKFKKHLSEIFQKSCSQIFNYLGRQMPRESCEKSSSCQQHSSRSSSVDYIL", "assay": "cell-based or functional assay"}, "[2]": {"target": "T1, human CCR8", "assay": "cell-based or functional assay", "remark": "listed apart in the source"}, "[3]": {"target": "T1, human CCR8", "assay": "flow cytometry using HEK293 cells, 0.0046 to 10 µg/mL (selectivity study)"}, "[4]": {"target": "T2, mouse CCR8 on HEK293 cells (mouse, UniProt P56484 1-353)", "T2 sequence (looked up)": "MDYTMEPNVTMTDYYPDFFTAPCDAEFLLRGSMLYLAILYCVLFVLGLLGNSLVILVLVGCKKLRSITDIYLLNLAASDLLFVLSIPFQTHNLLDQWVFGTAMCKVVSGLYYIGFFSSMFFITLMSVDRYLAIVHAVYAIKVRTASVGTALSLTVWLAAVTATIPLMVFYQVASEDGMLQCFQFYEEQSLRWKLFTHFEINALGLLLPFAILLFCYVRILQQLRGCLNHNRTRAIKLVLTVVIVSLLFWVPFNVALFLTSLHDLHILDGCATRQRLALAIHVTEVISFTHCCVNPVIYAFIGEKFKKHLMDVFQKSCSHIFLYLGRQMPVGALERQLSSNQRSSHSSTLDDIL", "assay": "cell-based or functional assay"}, "[5]": {"target": "T2, mouse CCR8 on HEK293 cells", "assay": "cell-based or functional assay", "remark": "listed apart in the source"}, "[6]": {"target": "T2, mouse CCR8 on HEK293 cells", "assay": "flow cytometry on murine CCR8-transfected HEK293 cells", "experimental": "(§1) The binding properties of murine surrogate antibodies were assessed using flow cytometry on HEK293 cells ectopically expressing murine CCR8."}, "[7]": {"target": "T3, Mouse FcγRIV/CD16-2 (mouse, UniProt A0A0B4J1G0 21-203)", "T3 construct": "also called mFcγR variant", "T3 sequence": "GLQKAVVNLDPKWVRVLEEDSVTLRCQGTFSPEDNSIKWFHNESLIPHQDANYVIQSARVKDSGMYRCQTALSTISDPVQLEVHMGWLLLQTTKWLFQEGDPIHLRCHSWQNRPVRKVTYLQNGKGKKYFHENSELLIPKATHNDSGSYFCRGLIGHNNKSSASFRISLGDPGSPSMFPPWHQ", "assay": "SPR", "experimental": "(§2) The binding of murine surrogate antibodies to mouse Fc receptor variants (mFcγR and mFcRn) was analyzed by SPR."}, "[8]": {"target": "T4, Mouse FcRn (mouse, UniProt Q61559 22-297; P01887 21-119)", "T4 construct": "also called mFcRn; murine FcRn", "T4 sequence (looked up) 1": "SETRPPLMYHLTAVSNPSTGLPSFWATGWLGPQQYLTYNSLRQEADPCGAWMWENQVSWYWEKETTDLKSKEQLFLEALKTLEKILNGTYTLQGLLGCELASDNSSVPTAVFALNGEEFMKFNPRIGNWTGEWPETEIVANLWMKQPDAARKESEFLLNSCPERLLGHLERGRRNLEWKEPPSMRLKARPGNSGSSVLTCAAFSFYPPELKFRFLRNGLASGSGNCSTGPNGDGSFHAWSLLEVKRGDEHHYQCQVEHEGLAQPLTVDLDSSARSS", "T4 sequence (looked up) 2": "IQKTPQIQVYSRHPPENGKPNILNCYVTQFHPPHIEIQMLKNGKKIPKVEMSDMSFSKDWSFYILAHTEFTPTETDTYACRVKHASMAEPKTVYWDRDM", "assay": "SPR", "experimental": "as §2"}, "[9]": {"target": "T5, Mouse FcγRIIA/CD32a (R167) (mouse)", "T5 construct": "The printed name is that of a human receptor allotype; kept as printed; also called mFcγR variant", "assay": "SPR; approximation, saturation not reached", "experimental": "as §2"}, "[10]": {"target": "T6, Mouse FcγRIIIB/CD16b (mouse)", "T6 construct": "The printed name is that of a human receptor; kept as printed; also called mFcγR variant", "assay": "SPR; approximation, saturation not reached", "experimental": "as §2"}, "[11]": {"target": "T2, mouse CCR8 on HEK293 cells", "assay": "flow cytometry, mouse CCR8-expressing HEK293 cells; reference TPP-15285", "experimental": "as §1"}}, "note": "“And” between values parts separate entries of the source, which are not always exact repeats. Equal values may be shown once."}
{"binder": "TPP-23411 (afucosylated) (antibody, human IgG1, lambda, V domains shown, afucosylated Fc glycan, Fully human IgG1 lambda; In the ADA bridging assay it was biotinylated or SULFO-tagged; also called 21360-hIgG1wtlambda; anti-human CCR8 antibody hIgG1 isotype (afucosylated)) VH: EVQLLESGGGLVQPGGSLRLSCAASGFTFSSYGMHWVRQAPGKGLEWVSAINWNGGSTGYADSVKGRFTISRDNSKNTLYLQMNSLRAEDTAVYYCARGHHSGYDGRFFDYWGQGTLVTVSS VL: QSVLTQPPSVSGAPGQRVTISCTGSSSNIGAGYNVHWYQQLPGTAPKLLIYTNNRRPSGVPDRFSGSKSGTSASLAISGLRSEDEADYYCAAWDASLSGWVFGGGTKLTVLG", "values": [{"measurement": "ADCC EC50; HEK-hCCR8 target cells, NK92V effector cells", "setting": "[1]", "result": 0.0128, "unit": "nM"}, {"measurement": "ADCC EC50; Tregs, donor 1100 (85.0% CCR8 expression), NK92V effector cells", "setting": "[1]", "result": 0.0281, "unit": "nM"}, {"measurement": "ADCC EC50; Tregs, donor 1163 (31.4% CCR8 expression), NK92V effector cells", "setting": "[1]", "result": 0.0559, "unit": "nM"}, {"measurement": "ADCP EC50; Tregs, donor 1100 (63% CCR8 expression), human M2c macrophages", "setting": "[2]", "result": 0.143, "unit": "nM"}, {"measurement": "ADCP EC50; Tregs, donor 1163 (40% CCR8 expression), human M2c macrophages", "setting": "[2]", "result": 0.44, "unit": "nM"}, {"measurement": "EC50", "setting": "[3]", "result": 0.129, "unit": "µg/mL"}]}
{"binder": "TPP-23411 (wild-type) (antibody, human IgG1, lambda, V domains shown, conventional (fucosylated) glycosylation) VH: EVQLLESGGGLVQPGGSLRLSCAASGFTFSSYGMHWVRQAPGKGLEWVSAINWNGGSTGYADSVKGRFTISRDNSKNTLYLQMNSLRAEDTAVYYCARGHHSGYDGRFFDYWGQGTLVTVSS VL: QSVLTQPPSVSGAPGQRVTISCTGSSSNIGAGYNVHWYQQLPGTAPKLLIYTNNRRPSGVPDRFSGSKSGTSASLAISGLRSEDEADYYCAAWDASLSGWVFGGGTKLTVLG", "values": [{"measurement": "ADCC EC50; HEK-hCCR8 target cells, NK92V effector cells", "setting": "[1]", "result": 0.0702, "unit": "nM"}, {"measurement": "ADCP EC50; Tregs, donor 1100 (63% CCR8 expression), human M2c macrophages", "setting": "[2]", "result": 0.155, "unit": "nM"}, {"measurement": "ADCP EC50; Tregs, donor 1163 (40% CCR8 expression), human M2c macrophages", "setting": "[2]", "result": 0.148, "unit": "nM"}]}
{"binder": "TPP-15285 (normal half-life) (antibody, V domains shown, Anti-mouse CCR8 antibody, human VH/VL chimerized to mIgG2a (lambda)) VH: EVQLLESGGGLVQPGGSLRLSCAASGFTFSDYGVHWVRQAPGKGLEWVSGVSWNGSRTHYADSVKGRFTISRDNSKNTLYLQMNSLRAEDTAVYYCVTRGAWGQGTLVTVSS VL: not shown", "values": [{"measurement": "ADCC EC50 (ng/mL) at 20 hours; mouse CCR8-expressing HEK293 cells, mouse NK cells", "setting": "[4]", "result": 32.6, "unit": "ng/mL"}, {"measurement": "ADCC EC50 (pM) at 20 hours; mouse CCR8-expressing HEK293 cells, mouse NK cells", "setting": "[4]", "result": 227, "unit": "pM"}, {"measurement": "cumulative ADCP EC50 (ng/mL), 4 hours; mouse CCR8-expressing HEK293 cells, mouse M2 macrophages", "setting": "[5]", "result": 54.5, "unit": "ng/mL"}, {"measurement": "cumulative ADCP EC50 (ng/mL), 12 hours; mouse CCR8-expressing HEK293 cells, mouse M2 macrophages", "setting": "[5]", "result": 22.7, "unit": "ng/mL"}, {"measurement": "cumulative ADCP EC50 (pM), 4 hours; mouse CCR8-expressing HEK293 cells, mouse M2 macrophages", "setting": "[5]", "result": 380, "unit": "pM"}, {"measurement": "cumulative ADCP EC50 (pM), 12 hours; mouse CCR8-expressing HEK293 cells, mouse M2 macrophages", "setting": "[5]", "result": 158, "unit": "pM"}, {"measurement": "EC50", "setting": "[6]", "result": "12.5 nM and 1.8 µg/mL"}]}
{"binder": "TPP-29338 (short half-life) (antibody, mouse IgG2a) heavy: EVQLLESGGGLVQPGGSLRLSCAASGFTFSDYGVHWVRQAPGKGLEWVSGVSWNGSRTHYADSVKGRFTISRDNSKNTLYLQMNSLRAEDTAVYYCVTRGAWGQGTLVTVSSAKTTAPSVYPLAPVCGDTTGSSVTLGCLVKGYFPEPVTLTWNSGSLSSGVHTFPAVLQSDLYTLSSSVTVTSSTWPSQSITCNVAHPASSTKVDKKIEPRGPTIKPCPPCKCPAPNLLGGPSVFIFPPKIKDVLMISLSPIVTCVVVDVSEDDPDVQISWFVNNVEVHTAQTQTHREDYNSTLRVVSALPIQANDWMSGKEFKCKVNNKDLPAPIERTISKPKGSVRAPQVYVLPPPEEEMTKKQVTLTCMVTDFMPEDIYVEWTNNGKTELNYKNTEPVLDSDGSYFMYSKLRVEKKNWVERNSYSCSVVHEGLAQHHTTKSFSRTPGK light: QSVLTQPPSASGTPGQRVTISCSGSSFNIGSHFVYWYQQLPGTAPKLLIYKNNQRPSGVPDRFSGSKSGTSASLAISGLRSEDEADYYCAAWDDSLNGPVFGGGTKLTVLGQPKSSPSVTLFPPSSEELETNKATLVCTITDFYPGVVTVDWKVDGTPVTQGMETTQPSKQSNNKYMASSYLTLTARAWERHSSYSCQVTHEGHTVEKSLSRADCS", "values": [{"measurement": "Kd", "setting": "[7]", "result": 1400, "unit": "nM"}, {"measurement": "binding result", "setting": "[8]", "result": "no binding (tested: 15.6 to 2,000 nM (FcRn assay))"}, {"measurement": "ADCC EC50 (ng/mL) at 20 hours; mouse CCR8-expressing HEK293 cells, mouse NK cells", "setting": "[4]", "result": 1.33, "unit": "ng/mL"}, {"measurement": "ADCC EC50 (pM) at 20 hours; mouse CCR8-expressing HEK293 cells, mouse NK cells", "setting": "[4]", "result": 9.28, "unit": "pM"}, {"measurement": "cumulative ADCP EC50 (ng/mL), 4 hours; mouse CCR8-expressing HEK293 cells, mouse M2 macrophages", "setting": "[5]", "result": 74.3, "unit": "ng/mL"}, {"measurement": "cumulative ADCP EC50 (ng/mL), 12 hours; mouse CCR8-expressing HEK293 cells, mouse M2 macrophages", "setting": "[5]", "result": 28.3, "unit": "ng/mL"}, {"measurement": "cumulative ADCP EC50 (pM), 4 hours; mouse CCR8-expressing HEK293 cells, mouse M2 macrophages", "setting": "[5]", "result": 518, "unit": "pM"}, {"measurement": "cumulative ADCP EC50 (pM), 12 hours; mouse CCR8-expressing HEK293 cells, mouse M2 macrophages", "setting": "[5]", "result": 197, "unit": "pM"}, {"measurement": "Kd", "setting": "[9]", "result": "~12000", "unit": "nM"}, {"measurement": "Kd", "setting": "[10]", "result": "~19000", "unit": "nM"}, {"measurement": "EC50", "setting": "[6]", "result": "0.495 nM and 0.071 µg/mL"}, {"measurement": "fold higher affinity compared to TPP-15825", "setting": "[11]", "result": 10, "unit": "fold"}]}
